Test [1] addresses T1, human Trop-2 on the cell surface (native, endogenous or transfected) (human, UniProt P09758 27-323).
T1 sequence: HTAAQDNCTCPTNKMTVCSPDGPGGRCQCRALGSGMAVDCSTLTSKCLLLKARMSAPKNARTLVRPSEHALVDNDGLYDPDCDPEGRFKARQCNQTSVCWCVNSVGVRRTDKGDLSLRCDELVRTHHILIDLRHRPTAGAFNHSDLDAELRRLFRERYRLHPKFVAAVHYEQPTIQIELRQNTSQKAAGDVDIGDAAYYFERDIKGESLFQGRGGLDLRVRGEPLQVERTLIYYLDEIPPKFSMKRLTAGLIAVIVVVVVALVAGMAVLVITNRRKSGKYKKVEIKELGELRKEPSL
The experiment in a line: cell-based or functional assay.

The target of test [2] is T1, human Trop-2 on the cell surface …. The experiment in a line: flow cytometry competition on Colo205 cells, competitor of 2EF-488 at 9x and 27x. The procedure:
(§1) The relative affinity of Hu2EF-4 e Hu2EF-5 for the native Trop-2 antigen was also analysed by means of […] competitive binding measured by flow cytometry on live tumor cells that express surface Trop-2. […] After 20 min at 4° C. cells were washed with 5 ml of SM and resuspended in 500 μl di SM with 0.5 μg/ml propidioiodide to discriminate dead cells). Fluorescence was then analysed by flow cytometry (FACScalibur, FACScan, Becton Dickinson, Sunnyvale, Calif.) as previously described (Alberti, Nutini et al. 1994) (FIG. 31). […] Simila results were obtained for the Hu2EF-4 antibody.
On the technique in general: In flow cytometry, cells or beads pass a laser one at a time.

Test [3] shares this target. The experiment in a line: flow cytometry competition on Colo205 cells, competitor of 2EF-488. The method, then: as §1
Test [4] has the same target. The experiment in a line: flow cytometry competition on Colo205 cells (FIG. 31 and FIG. 37). The procedure:
FIG. 37: Relative affinity of the 2EF and Hu2EF-7 antibodies for native Trop-2—Flow citometry analysis. Human colon cancer COLO205 cells, which are positive for Trop-2, were incubated with FITC-labelled 2EF antibody pre-mixed with increasing concentrations of unlabelled Hu2EF-7 purified from CHO-K1 or YB2/0 cells.
as §1

Test [5] shares this target. The experiment in a line: flow cytometry, MCF-7 cells, goat anti-human Alexa-488. The procedure:
FIG. 38: Specific recognition of Trop-2 by the humanized monoclonal antibodies according to the present invention - analysis by flow cytometry. (A) human metastatic colon cancer KM12SM cells transfected with a vector expressing Trop-2 (left panel) or with the empty vector (right panel) were incubated with the ‘humanized anti-Trop-2 monoclonal antibody Hu2EF-7. […] Unstained negative controls (thin line) are shown for comparison. (B) Human colon cancer HT29 cells (left panel) or breast cancer MCF-7 cells (right panel) expressing Trop-2 were incubated with the humanized Hu-2EF-7 and Hu-2G10-6anti-Trop-2monoclonal antibodies respectively.

Test [6] has the same target. Briefly: flow cytometry competition with 2G10-488 on MTE 4-14/Trop-2 and MCF7 cells (sentence also sums up the competitive ELISA). From the text:
The binding to Trop-2 of the purified Ch2G10, Hu2G10-5 and Hu2G10-6 antibodies was also characterized by flow cytometry using alive cells that express native surface Trop-2 (either ndogenous or transfected). […] The cells were then washed and analyzed by flow cytometry as described.

B1: humanized Hu2EF-7 antibody (Hu2EF VH7 and VL2, IgG1/kappa) (antibody, V domains shown)
VH: QVQLVQSGAEVKKPGASVKVSCKASGYTFTNYWIGWVKQAPGQGLEWIGDIYPGGGYTNYNEKFKGRATLTADTSASTAYMELSSLRSEDTAVYYCARGTGGGDYWGQGTLVTVSS
VL: DIVLTQSPDSLAVSLGERATINCRASQSVSTSSYSYMHWYQQKPGQPPKLLIKYASNLESGVPDRFSGSGSGTDFTLTISSLQAEDVAVYYCQHSWEIPYTFGGGTKLEIKR
Take B1: the “EC50 of ADCC reporter bioassay (luciferase luminescence; Jurkat effector cells with V158 FcgammaRIIIa and NFAT-luciferase; MCF7 target cells)” value in test [1] amounted to 52 ng/mL.

B2: humanized Hu2EF-5 antibody (VH5-Hu2EF and VL1-Hu2EF, IgG1/kappa) (antibody, V domains shown)
VH: QVQLVQSGAEVKKPGASVKVSCKASGYTFTNYWIGWVRQAPGQGLEWIGDIYPGGGYTNYNEKFKGRATLTADTSTSTAYMELSSLRSEDTAVYYCARGTGGGDYWGQGTLVTVSS
VL: DIVMTQSPDSLAVSLGERATINCRASQSVSTSSYSYMHWYQQKPGQPPKLLIKYASNLESGVPDRFSGSGSGTDFTLTISSLQAEDVAVYYCQHSWEIPYTFGQGTKLEIK
notes: human IgG1/kappa constant regions
For the molecule B2, the binding result in test [2] is “binds”.

B3: humanized Hu2EF-4 antibody (VH4-Hu2EF and VL1-Hu2EF, IgG1/kappa) (antibody, V domains shown)
VH: QVQLVQSGAEVKKPGASVKVSCKASGYTFTNYWIGWVRQAPGQGLEWIGDIYPGGGYTNYNEKFKGRATLTADTSASTAYMELSSLRSEDTAVYYCARGTGGGDYWGQGTLVTVSS
VL: DIVMTQSPDSLAVSLGERATINCRASQSVSTSSYSYMHWYQQKPGQPPKLLIKYASNLESGVPDRFSGSGSGTDFTLTISSLQAEDVAVYYCQHSWEIPYTFGQGTKLEIK
notes: as for B2
As to B3, the binding result in test [3] is given as “binds”.

B4: mouse 2EF antibody (hybridoma PD 08021) (antibody, V domains shown)
VH: QVQLQQSGAELVRPGTSVKMSCKAAGYTFTNYWIGWVKQRPGHGLEWIGDIYPGGGYTNYNEKFKGKATLTADTSSSTAYMQLSSLTSEDSAIYYCARGTGGGDYWGQGTLVTVSA
VL: DIVLTQSPASLAVSLGQRATISCRASQSVSTSSYSYMHWYQQKPGQPPKLLIKYASNLESGVPARFSGSGSGTDFTLNIHPVEEEDTATYYCQHSWEIPYTFGGGTKLEIK
notes: Mouse monoclonal purified from the hybridoma; also called murine 2EF
With B4, the binding result in test [4] is given as “binds”.

B5: humanized Hu2G10-6 antibody (Hu2G10 VH2 and VL3, IgG1/kappa) (antibody, V domains shown)
VH: QVQLVQSGAEVKKPGASVKVSCKASGFTFSSSYISWLRQAPGQRLEWIAWIYAGTGGTSYNQKFTGRVTLTVDTSASTAYMELSSLRSEDTAVYYCARHNPRYYAMDYWGQGTTVTVSS
VL: DTQMTQSPSSLSASVGDRVTITCITSTDIDDDMNWYQQKPGKAPKLLISEGNTLRPGVPSRFSGSGYGTDFTFTISSLQPEDIATYYCLQSDNLPYTFGGGTKVEIKR
In the case of B5, in test [5], the binding result is “binds”.

B6: humanized Hu2G10-5 antibody (Hu2G10 VH1 and VL3, IgG1/kappa) (antibody, V domains shown)
VH: QVQLVQSGAEVKKPGASVKVSCKASGFTFSSSYISWLRQAPGQRLEWIAWIYAGTGGTSYNQKFTGKATLTVDTSASTAYMELSSLRSEDTAVYYCARHNPRYYAMDYWGQGTTVTVSS
VL: DTQMTQSPSSLSASVGDRVTITCITSTDIDDDMNWYQQKPGKAPKLLISEGNTLRPGVPSRFSGSGYGTDFTFTISSLQPEDIATYYCLQSDNLPYTFGGGTKVEIKR
For B6, in test [1], the “EC50 of ADCC reporter bioassay (luciferase luminescence; Jurkat effector cells with V158 FcgammaRIIIa and NFAT-luciferase; MCF7 target cells)” value was found to be 4150 ng/mL.

B7: chimeric 2G10 IgG1/kappa antibody (Ch2G10) (antibody, V domains shown)
VH: QGQMQQSGAELVKPGASVKLSCKTSGFTFSSSYISWLKQKPRQSLEWIAWIYAGTGGTSYNQKFTGKAQLTVDTSSSTAYMQLSSLTSEDSAIYYCARHNPRYYAMDYWGQGTSVTVSS
VL: ETTVTQSPASLSMAIGEKVTIRCITSTDIDDDMNWYQQKPGEPPKLLISEGNTLRPGVPSRFSSSGYGTDFVFTIENMLSEDVADYYCLQSDNLPYTFGGGTKLEIKR
notes: also called Ch2G10-IgG1/k
Take B7: the binding result in test [6] is given as “binds”.

B8: mouse 2G10 antibody (hybridoma PD 08020) (antibody, V domains shown)
VH: QGQMQQSGAELVKPGASVKLSCKTSGFTFSSSYISWLKQKPRQSLEWIAWIYAGTGGTSYNQKFTGKAQLTVDTSSSTAYMQLSSLTSEDSAIYYCARHNPRYYAMDYWGQGTSVTVSS
VL: ETTVTQSPASLSMAIGEKVTIRCITSTDIDDDMNWYQQKPGEPPKLLISEGNTLRPGVPSRFSSSGYGTDFVFTIENMLSEDVADYYCLQSDNLPYTFGGGTKLEIK
notes: Mouse monoclonal from the hybridoma; also called murine 2G10
Consider B8, for which the binding result in test [6] is given as “binds”.
